Data on two molecules can be found in patent US20130196383A1, “Method of Producing Dicer” (published 2013).

Data set [1] addresses T1, hDcr-CΔRBD fragment of human Dicer (Homo sapiens, UniProt Q9UPY3 SEQ:1235-1844).
T1 chain: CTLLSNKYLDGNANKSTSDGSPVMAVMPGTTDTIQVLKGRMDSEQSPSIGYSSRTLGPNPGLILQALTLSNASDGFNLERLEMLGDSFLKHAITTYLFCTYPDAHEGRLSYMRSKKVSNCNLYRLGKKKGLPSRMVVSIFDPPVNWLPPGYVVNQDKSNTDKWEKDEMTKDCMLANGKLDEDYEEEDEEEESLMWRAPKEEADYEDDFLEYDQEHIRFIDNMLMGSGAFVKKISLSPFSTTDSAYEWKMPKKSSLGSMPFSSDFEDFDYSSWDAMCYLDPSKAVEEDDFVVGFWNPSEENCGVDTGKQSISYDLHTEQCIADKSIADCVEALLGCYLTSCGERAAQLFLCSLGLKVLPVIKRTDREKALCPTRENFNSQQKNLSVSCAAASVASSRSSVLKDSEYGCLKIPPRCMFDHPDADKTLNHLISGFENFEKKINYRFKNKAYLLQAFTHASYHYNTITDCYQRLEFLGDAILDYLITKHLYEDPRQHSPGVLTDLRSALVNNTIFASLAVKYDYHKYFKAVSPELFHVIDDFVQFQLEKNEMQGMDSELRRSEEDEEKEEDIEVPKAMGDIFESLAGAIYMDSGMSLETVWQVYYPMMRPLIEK
Nature of the data set: filter; out of detectable limit. The following applies: tags: expressed from pHMGWA-His6-MBP vector, E. coli; label: 5'-32P on one strand; siRNA duplex, 19 bp, Dicer product mimic. The procedure:
(§1) Filter binding assays of hDcr and different hDcr fragments were performed in the same way as previously described (7). Briefly, serial dilutions of hDcr protein were incubated in a buffer containing 20 mM Tris-HCl (pH 7.5), 25 mM NaCl, 5 mM EDTA, 1 mM dithiothreitol (DTT), 1% glycerol and ˜0.5-1 nM (1500 CPM) of 5′-end ³²P-labeled duplex RNA substrate (one strand was labeled) at room temperature for 60 min in a 30 μl of total volume. Following incubation, a 25 μl aliquot of each reaction was applied to a dot-blot apparatus equipped with three membranes: Tuffryn, Protran and Nytran (from top to bottom). After drying, the bound (on Protran) or free (on Nytran) RNAs were quantified by a Phosphorimager (GE Healthcare). Percent bound RNA, calculated as the ratio of radioactivity detected on the Protran membrane over the total input radioactivity, was plotted as a function of protein concentration. Kd was determined by global fitting to the equation: kobsd=(kₘₐₓ[…]) (Kd+[Dicer])−1, where kobsd is the observed rate constant at a given protein concentration, kₘₐₓ is the maximal rate constant with saturating protein, and Kd is the protein concentration that provides half the maximal rate. Curve fitting was conducted with KaleidaGraph (Synergy Software, Reading, Pa.).
To establish the relationship between cleavage activity and substrate binding, nitrocellulose filter-binding assays were performed with three kinds of RNAs under non-cleavage conditions: substrate dsRNA ([…]), Dicer product-mimic dsRNA (19-bp) and a pre-miRNA (pre-hlet-7a-1).

The target in data set [2] is T2, hDcr-C (RNase IIIa/IIIb-dsRBD) fragment of human Dicer (Homo sapiens, UniProt Q9UPY3 SEQ:1235-1922).
T2 chain: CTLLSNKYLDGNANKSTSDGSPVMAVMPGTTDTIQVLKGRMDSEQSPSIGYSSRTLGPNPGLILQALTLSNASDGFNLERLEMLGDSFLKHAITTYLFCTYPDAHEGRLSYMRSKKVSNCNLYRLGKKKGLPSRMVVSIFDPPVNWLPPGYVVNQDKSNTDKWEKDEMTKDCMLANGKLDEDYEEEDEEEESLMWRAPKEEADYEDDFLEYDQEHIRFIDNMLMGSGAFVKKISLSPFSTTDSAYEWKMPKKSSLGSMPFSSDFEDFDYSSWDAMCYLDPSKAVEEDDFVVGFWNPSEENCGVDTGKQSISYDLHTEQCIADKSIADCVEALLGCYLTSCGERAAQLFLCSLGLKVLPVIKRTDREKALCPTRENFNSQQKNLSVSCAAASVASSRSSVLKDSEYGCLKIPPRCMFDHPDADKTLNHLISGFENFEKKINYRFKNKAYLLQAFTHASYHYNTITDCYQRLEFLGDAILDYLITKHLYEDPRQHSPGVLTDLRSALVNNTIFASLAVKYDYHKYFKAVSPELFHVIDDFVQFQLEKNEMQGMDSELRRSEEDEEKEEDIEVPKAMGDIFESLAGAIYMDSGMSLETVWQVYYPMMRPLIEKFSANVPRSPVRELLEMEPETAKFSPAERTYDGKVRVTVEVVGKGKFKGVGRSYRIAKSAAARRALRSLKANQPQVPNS
Put plainly: filter; out of detectable limit; almost no binding. The following applies: tags: expressed from pHMGWA-His6-MBP vector, E. coli; label: 5'-32P on one strand; siRNA duplex, 19 bp, Dicer product mimic. As for the experimental part: as §1, with “Pa.). […]” for “Pa.).”

Data set [3] has as its target T3, MBP-ATPase/helicase fragment of human Dicer (Homo sapiens, UniProt Q9UPY3 SEQ:1-604).
T3 chain: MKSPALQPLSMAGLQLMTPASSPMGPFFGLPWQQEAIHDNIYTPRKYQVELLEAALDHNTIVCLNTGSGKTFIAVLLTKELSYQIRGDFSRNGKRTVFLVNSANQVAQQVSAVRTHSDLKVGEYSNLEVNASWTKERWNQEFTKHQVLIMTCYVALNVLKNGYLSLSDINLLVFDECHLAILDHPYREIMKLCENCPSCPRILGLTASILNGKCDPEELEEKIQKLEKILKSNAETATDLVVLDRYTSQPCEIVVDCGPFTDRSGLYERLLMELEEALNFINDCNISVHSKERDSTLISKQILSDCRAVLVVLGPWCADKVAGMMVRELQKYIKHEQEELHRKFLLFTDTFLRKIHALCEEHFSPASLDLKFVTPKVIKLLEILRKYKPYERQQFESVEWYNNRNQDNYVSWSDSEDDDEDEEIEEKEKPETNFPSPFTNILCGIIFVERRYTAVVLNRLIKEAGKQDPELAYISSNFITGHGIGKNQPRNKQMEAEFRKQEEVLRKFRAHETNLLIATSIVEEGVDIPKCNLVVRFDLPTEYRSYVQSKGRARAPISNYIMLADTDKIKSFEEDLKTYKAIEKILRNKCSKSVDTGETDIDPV
Put plainly: filter; out of detectable limit; 5 mM EDTA. The note with it: tags: His6-MBP N-terminal fusion (pHMGWA), E. coli; label: 5'-32P on one strand; siRNA duplex, 19 bp, Dicer product mimic. As for the experimental part:
as §1, with “Pa.). […]” for “Pa.).”

For data set [4], the target named is T4, hDcr-CΔRBD, hDcr-C lacking the C-terminal dsRBD (1235-1844), bacterially expressed (human, UniProt Q9UPY3 1235-1844).
T4 construct: also called hDcr-CARBD
T4 sequence: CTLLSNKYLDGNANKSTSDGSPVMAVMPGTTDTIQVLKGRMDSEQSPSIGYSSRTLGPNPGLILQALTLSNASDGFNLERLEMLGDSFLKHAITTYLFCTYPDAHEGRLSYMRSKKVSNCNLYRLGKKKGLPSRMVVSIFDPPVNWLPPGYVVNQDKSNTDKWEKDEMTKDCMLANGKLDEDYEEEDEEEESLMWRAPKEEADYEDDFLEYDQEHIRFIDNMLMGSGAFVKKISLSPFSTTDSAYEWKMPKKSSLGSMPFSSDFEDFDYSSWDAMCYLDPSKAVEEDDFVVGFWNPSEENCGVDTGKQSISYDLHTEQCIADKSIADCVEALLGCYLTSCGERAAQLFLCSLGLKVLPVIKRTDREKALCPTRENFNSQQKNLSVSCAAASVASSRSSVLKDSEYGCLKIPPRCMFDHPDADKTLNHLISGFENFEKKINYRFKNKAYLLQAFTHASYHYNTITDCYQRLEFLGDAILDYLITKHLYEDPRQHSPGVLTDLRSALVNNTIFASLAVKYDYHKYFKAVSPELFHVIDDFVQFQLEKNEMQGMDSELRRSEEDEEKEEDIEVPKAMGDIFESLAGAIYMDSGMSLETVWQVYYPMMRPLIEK
Nature of the data set: complex formation; method not detailed.

Data set [5] deals with T5, hDcr-C, C-terminal fragment of human Dicer (1235-1922), bacterially expressed (human, UniProt Q9UPY3 1235-1922).
T5 construct: Expressed in E. coli from the pHMGWA-His6-MBP destination vector via pENTR/TEV/D-TOPO
T5 sequence: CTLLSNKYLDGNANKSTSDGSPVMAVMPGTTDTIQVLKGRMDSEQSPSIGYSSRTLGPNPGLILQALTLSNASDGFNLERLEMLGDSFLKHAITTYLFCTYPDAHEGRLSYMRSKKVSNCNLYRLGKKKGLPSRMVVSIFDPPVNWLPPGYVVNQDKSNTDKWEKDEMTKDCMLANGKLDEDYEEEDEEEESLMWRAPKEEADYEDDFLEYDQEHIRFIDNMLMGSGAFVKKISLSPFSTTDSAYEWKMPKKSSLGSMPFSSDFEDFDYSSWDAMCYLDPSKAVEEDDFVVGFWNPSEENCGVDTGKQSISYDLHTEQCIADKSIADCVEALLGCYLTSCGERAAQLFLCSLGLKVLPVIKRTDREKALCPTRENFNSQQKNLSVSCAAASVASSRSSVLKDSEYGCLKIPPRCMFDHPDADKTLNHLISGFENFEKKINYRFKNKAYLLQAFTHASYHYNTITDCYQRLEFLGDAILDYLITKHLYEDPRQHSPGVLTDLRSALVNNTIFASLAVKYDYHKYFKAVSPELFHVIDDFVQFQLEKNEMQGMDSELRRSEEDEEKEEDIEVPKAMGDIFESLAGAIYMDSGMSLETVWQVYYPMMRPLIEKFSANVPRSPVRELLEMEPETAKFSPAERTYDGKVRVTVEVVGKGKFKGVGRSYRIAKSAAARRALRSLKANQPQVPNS
Nature of the data set: size-exclusion chromatography after incubation without RNA. The procedure:
To assess the role of the PAZ domain in determining Dicer cleavage product length, an attempt was made to express the PAZ domain alone in E. coli. Although this was unsuccessful, a construct including both the PAZ domain and the adjacent DUF283 region yielded soluble protein (hereafter the tandem construct named DP, FIG. 2A). […] To test for a direct protein-protein interaction, hDcr-C and DP polypeptides were incubated together in the absence of RNA and then analyzed by size exclusion chromatography.
DP forms a stable complex with hDcr-C. A pre-incubated mixture of the hDcr-C fragment with 3-fold excess of DP was analyzed with a Superdex 200 size-exclusion column (top panel, elution profile).
(In general: SEC sorts molecules by how far they enter the pores of the column.)

B1: 21ab (dsRNA)
RNA 1: UAUACAAUGUGCUAGCUUUCU
RNA 2: AAAGCUAGCACAUUGUAUAGU
With B1, the binding result in data set [1], in data set [2] and in data set [3] was “no binding” throughout.

B2: DP, tandem DUF283-PAZ domains of human Dicer (605-1068), bacterially expressed (other)
chain: MDDDDVFPPYVLRPDDGGPRVTINTAIGHINRYCARLPSDPFTHLAPKCRTRELPDGTFYSTLYLPINSPLRASIVGPPMSCVRLAERVVALICCEKLHKIGELDDHLMPVGKETVKYEEELDLHDEEETSVPGRPGSTKRRQCYPKAIPECLRDSYPRPDQPCYLYVIGMVLTTPLPDELNFRRRKLYPPEDTTRCFGILTAKPIPQIPHFPVYTRSGEVTISIELKKSGFMLSLQMLELITRLHQYIFSHILRLEKPALEFKPTDADSAYCVLPLNVVNDSSTLDIDFKFMEDIEKSEARIGIPSTKYTKETPFVFKLEDYQDAVIIPRYRNFDQPHRFYVADVYTDLTPLSKFPSPEYETFAEYYKTKYNLDLTNLNQPLLDVDHTSSRLNLLTPRHLNQKGKALPLSSAEKRKAKWESLQNKQILVPELCAIHPIPASLWRKAVCLPSILYRLHCLLTAE
notes: Expressed in E. coli from the pHMGWA-His6-MBP vector; also called middle domains of hDcr
For B2, the binding result in data set [4] and in data set [5] was “binds” throughout.
